Experimental data published in a protein production outcome set (Wang et al. 2014).

Assay: label from the status in PepcDB records

Sequence	protein production
MNEEQRKSTSIDILAERDKKTKDYSKYFEHVYQPPSLKEARKRGKEEVNYNDDFQIDEKYRNMGQGKTFLIKTYGCQMNAHDTEVMAGILGALGYTPTEDINHADVILINTCAIRENAENKVFSEIGNLKHLKKEKPETVIGVCGCMSQEESVVNKILKSYQNVDMIFGTHNIHRLPEILEEAYLSKAMVVEVWSKEGDVIENLPKVREGNIKAWVNIMYGCDKFCTYCIVPFTRGKERSRRPEDIIDEVRDLARQGYKEITLLGQNVNAYGKDIDGLAYGLGDLLEDISKIDIPRVRFTTSHPWDFTDRMIEVIANGGNIVPHVHLPVQSGNNAVLKIMGRKYTRESYLDLVNRIKTHIPNVALTTDIIVGYPNETDEQFEETLTLYDEVEFEHAYTYIYSQRDGTPAAKMNDNVPLDVKKDRLQQLNKKVACYSERAMQQYEGQTVQVLCEGVSKKDDTVLSGYTSKNKLVNFKAPKSMIGKIVNVYIDEAKQFSLNGTFISVNDKTVVTQLEHHHHHH	not failed
MPISEDLKQAIRQRARYICEYCHSPERLSANRFTIDHVIPKSLGGSDAFNNLALACRRCNERRYNFVASIDPQTKTIVAIFNPRQQNWAEHFIWTNRGIIIQGTTTTGRATCIRLDLNDTRYPEEDSIQETRRFWLKTGLHPPIDDPCKNLEHHHHHH	not failed
MTKKIVLAGGTGFIGQYLQQRFEENGDEVVIISRRAPHVSWDDSEAVREALEGADMLVNLAGKSVNCRYNEQNKKAILQSRIDTTNILGEAVLACERPPKLWLNSSTATIYRHAEDRAMTEANGELGSGFSENVAKAWEEEFFSFQLPNTRQAALRISIVLGGDGGALTPYRYLTKFGLGGKQGSGKQMVSWIHVEDVFRVIRFIEEQEALEGVINCTSPQPVSNKVLTTAIRRAMNVKVGLPATAWMLEIGTFLLRTESELILKSRWVLPERLLQAGFTFQYETIDDALSEILVQSKSASHLLEHHHHHH	failed
MSESTAPSDTVLLRGGEVHSPADPFATAMVVERGQVAWVGSEGAADAFSAGVDEVVDLEGALVTPAFTDAHVHTTSTGLALTGLDLSGAPSLEAALALVRDFAAARPDDRVLLGHGWDTARWPGGRPPTRAELDEAADGRPLYLSRIDVHSAVVSTALLDLVPGITGRAGYLDGPLTRDAHHAVRGAALGAVSPAQRTEAQRAALAHAASLGIGSVHECAGPEISSEDDFTGLLRLAAEETGPRVVGYWAEWGEEGIDRARALGAVGAAGDLFVDGALGSHTACLHQPYSDAGHTGTAYLDDDAVAAHVIACTEAGLQAGFHAIGDAAVTSVVEGVRAAAEKVGLARVRAARHRVEHAEMLTPETIAAFAELGLTASVQPAFDALWGGADGMYAQRLGAERARTLNPFAALLRAGVPLAFGSDSPVTPLDPWGTVRAAAFHRTPEHRVSVRAAFTAHTRGGWRAIGRDDAGVLVPGAPADYAVWRTEELVVQAPDDRVARWSTDPRSGTPGLPDLTPGGDLPVCLRTVVGGRTVFVRPNE	failed
MDSKIDFSSYSLNDLYSSAESIDRDVYPERAKEIDGLIRQKEAEFPEEIDTTKDIGEKATKSDRLMAAIIDGVIGIISLVPVIFYVGFDSFKEPSLSLLGILFIYGVFVTMVLHGYLLYYYGQTIGKNYMSIRIENLDGTKASLATIYFKRMLPMQLIGLIPSFGQFISGIVNPLFIFGKQRRCLHDYLAKTKVSYTGT	failed
MNNSVSSGYDVIGDVHGCASQLEVLLHKLGYETGASGEYRHPERQAIFVGDLIDRGGEQLRVLEVVKAMVDAGSALIVMGNHEFNALAYHTEWPVGSGKYLRPHDDPDNPWSAKNTKQHAAFLDQVRGEDRQRCLEWFATIPLWLDLGELRVVHACWHDDSIGVVENLCGSNAPFGDVSHLVAASTEDDPLYEAVETLLKGPEINLVAHGQPEYHDKDGIPRDNARVQWWNSDARTLRDIAEMGGGFTTSTGEPYPPLPEIALTGADRSYIYTAEIPVFYGHYWRQGSPKHRHDWTDYTACVDFSAVKGGRLTAYRWSGESTIKAENYVTAD	failed
MRPGAPGPLWPLPWGALAWAVGFVSSMGSGNPAPGGVCWLQQGQEATCSLVLQTDVTRAECCASGNIDTAWSNLTHPGNKINLLGFLGLVHCLPCKDSCDGVECGPGKACRMLGGRPRCECAPDCSGLPARLQVCGSDGATYRDECELRAARCRGHPDLSVMYRGRCRKSCEHVVCPRPQSCVVDQTGSAHCVVCRAAPCPVPSSPGQELCGNNNVTYISSCHMRQATCFLGRSIGVRHAGSCAGTPEEPPGGESAEEEENFV	failed
TTHKFEHPLNEKTRIYLRVESLLRQAHLASGFADNHQYQLFFRALFDMVEIFEQIQLKSELAKDLEKQRLSYRHWLNVEGVDQEALNSLLNEIDVVHSQLMGAERFGQALKEDRFLSSIRQRFNLPGGSCCFDLPALHYWLHLPIERKKHDANQWQKSLKPLSDALTLWLKLARETGHFKAQIARAGFFQSDADEANILRLHIPMKYGVYPMISGHKNRFAIKFMAFENGQACSQDVEFELAVC	not failed
MPLRCTKPLGATPATPTAPPTGRKGHQVAINGFITWILVTMSLVVYFLWAFIPTSFLDMVLASYYPDKYWAVAIPAILVMTMVYYLTVHFLLMLYRTDPLTDGFCVAQTNGAVRHESIENLVDVEDGVPPITDIPVSVASRLLFQPWN	failed
VSKAVQYMAKRRIGALIVFEKETGLQDYIETGIPMNSDISQELLTNVFIPNTPLHDGAMIIQGSKIAVAASYLPLSDSVKISKSLGTRHRAAVGISEVSDAFTVVVSEETGDISVTFDGKLRRDISKDVFEELLAEHWFGAHFQKKGVNS	not failed
MKSILDGLADTTFRTITTDLLYVGSNDIQYEDIKGDMASKLGYFPQKFPLTSFRGSPFQEKMTAGDNPQLVPADQVNITEFYNKSLSSFKENEENIQCGENFMDIECFMVLNPSQQLAIAVLSLTLGTFTVLENLLVLCVILHSRSLRCRPSYHFIGSLAVADLLGSVIFVYSFIDFHVFHRKDSRNVFLFKLGGVTASFTASVGSLFLTAIDRYISIHRPLAYKRIVTRPKAVVAFCLMWTIAIVIAVLPLLGWNCEKLQSVCSDIFPHIDETYLMFWIGVTSVLLLFIVYAYMYILWKAHSHAVRMIQRGTQKSIIIHTSEDGKVQVTRPDQARMDIRLAKTLVLILVVLIICWGPLLAIMVYDVFGKMNKLIKTVFAFCSMLCLLNSTVNPIIYALRSKDLRHAFRSMFPSCEGTAQPLDNSMGDSDCLHKHANNAASVHRAAESCIKSTVKIAKVTMSVSTDTSAEAL	not failed
MAIVLLVLHVCTGLRGSPVSGRVRMAVDSGIYLAPCSNNDAQEHLKRTVINGVDRDDYGQYTNVGFGDSVSIWGVKGGNESHWQDIDAGDYLFFYTGDETYSQVAEVLATDQNEGLAEHLWPGFEDTWEFIIYLNEPIPVNIDSNEIADYAGYKQNYILGFQSLRGSAVDEINDEYGSIEGYINANRTDGNHIQTSGGSQDPDEGDDSVVDEVLDEADRDEEAYANIARQLEEVGQVVFYGPPGTGKTYNAQQFARWWLHNLQSEPRESQVRSVTFHPSYTYEDFIEGLTANATENSVSYDIKPGKFKAICEDARVAYQETGPNEEPPRYVLLIDEINRGNLAQIFGETITLLEEDKRGTLHVDLAHSGGSFTIPPNLYVIGTMNTADRSVALVDAALRRRFRFIDFPPDYGVARSRFGFDTEYDLTSAARGERSDLEQLQALSIQAVEQLNETIIELPDLGKGKQIGHSYLLVDPDDEQALVDAWRYEILPLLEEYFYGQLSRIRQELFNQNGDSLVDWEREQIKDFDPETLRESLQAIVNAGLEHHHHHH	failed
MQIRLAFPNEIDQIMLLIEEARAEIAKTGSDQWQKEDGYPNRNDIIDDILNGYAWVGIEDGMLATYAAVIDGHEEVYDAIYEGKWLHDNHRYLTFHRIAISNQFRGRGLAQTFLQGLIEGHKGPDFRCDTHEKNVTMQHILNKLGYQYCGKVPLDGVRLAYQKIKEKGETSIYREIDERNPM	not failed
MPSVSVNKQGIVKVNSALNMRSGPGSNYGVIGTLRNNDEVEIIKEVDGWYEIKFNGKSGYVSSQYIKVLEHHHHHH	not failed
